Here are results for 4 sequences from US10562947B2, “Compositions and methods for preventing or treating diseases, conditions or processes characterized by aberrant fibroblast proliferation and extracellular matrix deposition” (MOERAE MATRIX, INC., priority 2011, dated 2020).

What all share (assay): Kinase Profiling Assay
Format in all cases: biochemical
What all share (conditions): 100 μM peptide

One assay concerns the target T1, ARK5(h) (Homo sapiens, UniProt O60285).
T1 sequence (O60285 1-661): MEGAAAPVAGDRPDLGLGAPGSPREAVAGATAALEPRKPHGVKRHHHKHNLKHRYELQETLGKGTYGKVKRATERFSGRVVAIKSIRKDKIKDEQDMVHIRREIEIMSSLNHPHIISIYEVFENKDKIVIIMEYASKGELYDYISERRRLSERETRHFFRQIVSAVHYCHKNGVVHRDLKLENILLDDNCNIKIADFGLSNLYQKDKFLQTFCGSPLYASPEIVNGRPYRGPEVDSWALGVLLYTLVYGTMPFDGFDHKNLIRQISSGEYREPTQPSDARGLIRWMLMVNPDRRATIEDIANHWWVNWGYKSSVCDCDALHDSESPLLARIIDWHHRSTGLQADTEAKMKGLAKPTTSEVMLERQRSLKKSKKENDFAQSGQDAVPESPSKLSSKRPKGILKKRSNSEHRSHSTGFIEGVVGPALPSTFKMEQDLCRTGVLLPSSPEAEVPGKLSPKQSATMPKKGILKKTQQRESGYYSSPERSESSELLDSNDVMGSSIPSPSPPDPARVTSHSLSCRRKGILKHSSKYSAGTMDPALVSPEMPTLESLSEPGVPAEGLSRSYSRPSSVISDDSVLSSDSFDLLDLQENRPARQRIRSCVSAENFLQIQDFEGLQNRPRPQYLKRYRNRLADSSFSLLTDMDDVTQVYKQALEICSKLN
In short, it runs like this: (§1)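 All 266 human kinases of a profiling service were assayed in duplicate to establish whether MK2 inhibitory peptides act specifically.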

Another assay has as its target Arg(h) (Homo sapiens, UniProt P42684). In short, it runs like this:
as §1

The target of the next assay is FGFR3(h) (Homo sapiens, UniProt P22607). The method in brief:
as §1

In the next assay the target is T2, Itk(h) (Homo sapiens, UniProt Q08881).
T2 construct: purchased Millipore
T2 sequence (Q08881 1-620): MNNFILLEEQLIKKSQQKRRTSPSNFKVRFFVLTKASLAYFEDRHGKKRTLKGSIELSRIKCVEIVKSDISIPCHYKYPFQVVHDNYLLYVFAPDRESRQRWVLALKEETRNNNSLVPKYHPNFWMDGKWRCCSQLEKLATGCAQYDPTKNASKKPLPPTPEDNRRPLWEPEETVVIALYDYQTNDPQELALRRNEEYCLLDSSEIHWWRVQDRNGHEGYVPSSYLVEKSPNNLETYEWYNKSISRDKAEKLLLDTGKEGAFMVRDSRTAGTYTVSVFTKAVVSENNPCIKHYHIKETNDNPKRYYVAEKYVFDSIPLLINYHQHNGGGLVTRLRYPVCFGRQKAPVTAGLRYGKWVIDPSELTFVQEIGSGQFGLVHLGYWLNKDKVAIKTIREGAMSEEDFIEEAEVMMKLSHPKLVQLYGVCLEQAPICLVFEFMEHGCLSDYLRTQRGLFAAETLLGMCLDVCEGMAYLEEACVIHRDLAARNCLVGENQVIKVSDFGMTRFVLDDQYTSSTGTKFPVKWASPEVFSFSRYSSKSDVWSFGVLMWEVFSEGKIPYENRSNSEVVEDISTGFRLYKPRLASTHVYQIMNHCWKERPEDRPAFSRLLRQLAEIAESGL
The method in brief:
as §1

In another assay the target is T3, MKK6(h) (Homo sapiens, UniProt P52564).
T3 sequence (P52564 1-334): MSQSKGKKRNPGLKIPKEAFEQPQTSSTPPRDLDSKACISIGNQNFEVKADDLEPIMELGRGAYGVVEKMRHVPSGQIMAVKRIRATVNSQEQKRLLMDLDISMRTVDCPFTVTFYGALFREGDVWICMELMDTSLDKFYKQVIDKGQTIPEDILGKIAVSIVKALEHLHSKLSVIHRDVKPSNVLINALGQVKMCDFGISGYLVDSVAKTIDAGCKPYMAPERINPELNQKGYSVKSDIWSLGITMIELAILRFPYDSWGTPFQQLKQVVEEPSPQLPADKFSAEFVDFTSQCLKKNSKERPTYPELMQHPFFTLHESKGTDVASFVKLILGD
In short, it runs like this:
as §1

Another assay has as its target MSK2(h) (Homo sapiens, UniProt O75676). In short, it runs like this:
as §1

A further assay addresses MSSK1(h) (Homo sapiens, UniProt Q9UPE1). The method in brief:
as §1

A further assay concerns the target PDGFRα(h) (Homo sapiens, UniProt P16234). The method in brief:
as §1

A further assay addresses Abl(Q252H)(h) (Homo sapiens, UniProt P00519, Q252H). In short, it runs like this:
as §1

A further assay concerns the target CDK1/cyclinB(h) (Homo sapiens, UniProt P06493). In short, it runs like this: as §1
Another assay deals with T4, HIPK1(h) (Homo sapiens, UniProt Q86Z02).
T4 construct: purchased Millipore
The method in brief:
as §1

The next assay has as its target T5, Hck(h) (Homo sapiens, UniProt P08631).
T5 construct: purchased Millipore
The method in brief:
as §1

A further assay addresses LIMK1(h) (Homo sapiens, UniProt P53667). The method in brief: as §1
The target in another assay is T6, Rsk1(h) (Homo sapiens, UniProt Q15418).
T6 construct: purchased Millipore (IC50 Profiler Express service)
In short, it runs like this: as §1

Chain of MSK2(h) (O75676 whole entry): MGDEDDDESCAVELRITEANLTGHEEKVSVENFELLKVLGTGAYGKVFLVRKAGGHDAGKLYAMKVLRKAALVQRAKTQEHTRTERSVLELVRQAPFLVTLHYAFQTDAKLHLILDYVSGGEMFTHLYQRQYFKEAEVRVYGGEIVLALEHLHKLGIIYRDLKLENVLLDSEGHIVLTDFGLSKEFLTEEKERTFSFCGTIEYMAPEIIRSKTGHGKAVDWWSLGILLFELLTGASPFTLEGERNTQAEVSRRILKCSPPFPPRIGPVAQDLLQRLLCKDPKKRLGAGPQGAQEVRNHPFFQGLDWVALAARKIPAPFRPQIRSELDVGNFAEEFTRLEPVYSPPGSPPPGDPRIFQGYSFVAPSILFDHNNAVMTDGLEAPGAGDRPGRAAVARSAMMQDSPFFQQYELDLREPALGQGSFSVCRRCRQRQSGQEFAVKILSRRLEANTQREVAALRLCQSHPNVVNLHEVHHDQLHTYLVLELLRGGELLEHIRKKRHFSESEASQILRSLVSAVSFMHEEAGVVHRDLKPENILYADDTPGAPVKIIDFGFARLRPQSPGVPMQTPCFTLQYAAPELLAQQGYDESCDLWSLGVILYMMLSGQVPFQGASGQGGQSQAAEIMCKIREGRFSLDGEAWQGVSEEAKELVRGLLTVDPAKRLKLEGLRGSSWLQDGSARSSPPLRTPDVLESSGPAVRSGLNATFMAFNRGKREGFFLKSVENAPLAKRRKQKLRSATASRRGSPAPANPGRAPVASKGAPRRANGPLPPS
Chain of Arg(h) (P42684 whole entry): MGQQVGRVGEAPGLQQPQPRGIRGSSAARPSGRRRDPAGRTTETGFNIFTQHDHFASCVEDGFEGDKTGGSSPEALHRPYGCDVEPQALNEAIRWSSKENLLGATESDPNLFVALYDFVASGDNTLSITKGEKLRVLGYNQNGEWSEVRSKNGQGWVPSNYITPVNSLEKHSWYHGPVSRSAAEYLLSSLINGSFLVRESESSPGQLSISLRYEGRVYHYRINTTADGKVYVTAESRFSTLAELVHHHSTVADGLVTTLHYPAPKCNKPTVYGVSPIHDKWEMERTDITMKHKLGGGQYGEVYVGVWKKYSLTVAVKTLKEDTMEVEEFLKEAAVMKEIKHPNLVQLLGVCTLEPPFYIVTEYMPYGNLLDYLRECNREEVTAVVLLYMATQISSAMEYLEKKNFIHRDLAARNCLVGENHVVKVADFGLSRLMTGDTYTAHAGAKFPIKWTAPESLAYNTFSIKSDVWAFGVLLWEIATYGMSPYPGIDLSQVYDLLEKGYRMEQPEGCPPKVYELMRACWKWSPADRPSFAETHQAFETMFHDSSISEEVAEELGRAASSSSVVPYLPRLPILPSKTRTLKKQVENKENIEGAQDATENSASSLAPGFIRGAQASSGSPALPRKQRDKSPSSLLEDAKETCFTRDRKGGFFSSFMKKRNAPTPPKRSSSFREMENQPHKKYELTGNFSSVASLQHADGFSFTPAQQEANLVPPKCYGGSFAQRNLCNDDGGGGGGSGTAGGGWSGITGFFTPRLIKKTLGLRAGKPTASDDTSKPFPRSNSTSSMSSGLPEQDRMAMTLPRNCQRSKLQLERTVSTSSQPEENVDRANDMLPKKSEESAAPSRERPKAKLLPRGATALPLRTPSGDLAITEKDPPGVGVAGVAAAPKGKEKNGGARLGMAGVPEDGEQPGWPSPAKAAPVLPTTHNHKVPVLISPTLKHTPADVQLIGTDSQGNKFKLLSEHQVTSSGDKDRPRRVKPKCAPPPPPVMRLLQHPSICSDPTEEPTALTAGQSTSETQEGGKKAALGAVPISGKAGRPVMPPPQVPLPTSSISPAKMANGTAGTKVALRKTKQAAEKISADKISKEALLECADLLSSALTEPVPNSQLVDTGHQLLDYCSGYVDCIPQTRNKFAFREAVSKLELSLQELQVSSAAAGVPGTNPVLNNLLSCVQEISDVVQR
T4 sequence (Q86Z02 whole entry): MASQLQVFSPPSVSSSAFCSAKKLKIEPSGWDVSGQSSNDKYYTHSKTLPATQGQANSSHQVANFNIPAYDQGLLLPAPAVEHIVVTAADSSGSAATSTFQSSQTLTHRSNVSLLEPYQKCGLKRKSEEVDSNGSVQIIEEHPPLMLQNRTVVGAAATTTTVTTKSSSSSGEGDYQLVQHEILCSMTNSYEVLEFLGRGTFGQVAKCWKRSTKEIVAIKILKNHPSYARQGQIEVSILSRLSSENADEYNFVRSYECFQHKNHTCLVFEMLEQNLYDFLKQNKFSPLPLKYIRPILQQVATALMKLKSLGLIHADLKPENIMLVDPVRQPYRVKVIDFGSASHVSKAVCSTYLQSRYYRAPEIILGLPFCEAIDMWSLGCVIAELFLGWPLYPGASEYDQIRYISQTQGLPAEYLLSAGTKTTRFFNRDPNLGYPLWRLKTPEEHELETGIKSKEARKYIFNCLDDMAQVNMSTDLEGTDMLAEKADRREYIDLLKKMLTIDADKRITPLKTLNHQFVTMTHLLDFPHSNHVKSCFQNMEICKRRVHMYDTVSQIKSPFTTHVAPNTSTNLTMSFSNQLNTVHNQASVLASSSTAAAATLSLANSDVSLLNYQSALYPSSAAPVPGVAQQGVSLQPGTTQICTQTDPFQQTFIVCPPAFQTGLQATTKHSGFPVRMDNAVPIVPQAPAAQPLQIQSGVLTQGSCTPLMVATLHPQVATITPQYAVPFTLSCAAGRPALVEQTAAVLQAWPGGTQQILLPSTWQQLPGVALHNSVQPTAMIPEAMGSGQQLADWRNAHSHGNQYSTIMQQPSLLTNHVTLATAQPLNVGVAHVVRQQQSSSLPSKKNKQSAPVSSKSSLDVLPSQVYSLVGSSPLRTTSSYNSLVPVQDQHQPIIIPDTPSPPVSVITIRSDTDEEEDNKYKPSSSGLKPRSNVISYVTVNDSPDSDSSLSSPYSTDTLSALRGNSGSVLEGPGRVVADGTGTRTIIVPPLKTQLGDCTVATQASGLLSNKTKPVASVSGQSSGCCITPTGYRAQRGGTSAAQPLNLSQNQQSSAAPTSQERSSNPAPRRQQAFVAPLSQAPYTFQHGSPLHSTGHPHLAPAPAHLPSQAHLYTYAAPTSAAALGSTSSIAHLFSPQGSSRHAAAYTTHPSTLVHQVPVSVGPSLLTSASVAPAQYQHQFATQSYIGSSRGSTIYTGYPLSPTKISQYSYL
T6 sequence (Q15418 whole entry): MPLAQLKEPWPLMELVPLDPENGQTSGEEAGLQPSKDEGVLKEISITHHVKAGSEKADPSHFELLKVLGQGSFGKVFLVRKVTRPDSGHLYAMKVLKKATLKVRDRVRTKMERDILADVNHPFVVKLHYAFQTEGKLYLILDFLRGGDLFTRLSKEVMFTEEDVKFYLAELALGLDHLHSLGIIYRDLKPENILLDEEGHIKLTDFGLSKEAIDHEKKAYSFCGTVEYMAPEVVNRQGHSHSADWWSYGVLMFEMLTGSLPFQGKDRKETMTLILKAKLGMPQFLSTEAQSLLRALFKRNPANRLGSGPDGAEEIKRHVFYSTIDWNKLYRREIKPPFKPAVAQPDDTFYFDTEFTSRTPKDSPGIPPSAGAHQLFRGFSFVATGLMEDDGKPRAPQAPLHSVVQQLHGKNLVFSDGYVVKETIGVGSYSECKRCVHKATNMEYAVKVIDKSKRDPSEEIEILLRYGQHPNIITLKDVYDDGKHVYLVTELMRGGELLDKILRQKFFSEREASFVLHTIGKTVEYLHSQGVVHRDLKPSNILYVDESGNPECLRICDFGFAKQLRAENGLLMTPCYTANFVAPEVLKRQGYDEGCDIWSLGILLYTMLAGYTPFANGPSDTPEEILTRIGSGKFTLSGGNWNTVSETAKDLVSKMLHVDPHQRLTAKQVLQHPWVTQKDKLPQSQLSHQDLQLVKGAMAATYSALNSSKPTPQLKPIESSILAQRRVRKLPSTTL
Chain of LIMK1(h) (P53667 whole entry): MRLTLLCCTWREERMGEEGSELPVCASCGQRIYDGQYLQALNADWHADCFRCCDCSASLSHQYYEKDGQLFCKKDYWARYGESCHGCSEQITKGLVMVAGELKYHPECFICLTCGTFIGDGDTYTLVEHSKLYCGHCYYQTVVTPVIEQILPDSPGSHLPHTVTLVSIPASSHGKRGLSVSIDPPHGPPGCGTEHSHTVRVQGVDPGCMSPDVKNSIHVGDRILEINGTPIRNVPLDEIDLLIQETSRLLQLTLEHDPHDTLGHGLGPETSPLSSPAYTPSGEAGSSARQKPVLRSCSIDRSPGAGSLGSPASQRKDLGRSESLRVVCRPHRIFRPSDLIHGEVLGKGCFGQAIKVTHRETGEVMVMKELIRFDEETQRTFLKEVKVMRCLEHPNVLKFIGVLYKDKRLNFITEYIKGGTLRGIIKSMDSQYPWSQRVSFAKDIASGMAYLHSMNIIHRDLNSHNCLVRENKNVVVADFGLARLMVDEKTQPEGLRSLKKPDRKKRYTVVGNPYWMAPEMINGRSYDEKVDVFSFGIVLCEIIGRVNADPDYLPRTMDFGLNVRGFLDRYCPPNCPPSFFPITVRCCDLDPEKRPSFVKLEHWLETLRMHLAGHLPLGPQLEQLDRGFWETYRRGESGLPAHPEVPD
T5 sequence (P08631 whole entry): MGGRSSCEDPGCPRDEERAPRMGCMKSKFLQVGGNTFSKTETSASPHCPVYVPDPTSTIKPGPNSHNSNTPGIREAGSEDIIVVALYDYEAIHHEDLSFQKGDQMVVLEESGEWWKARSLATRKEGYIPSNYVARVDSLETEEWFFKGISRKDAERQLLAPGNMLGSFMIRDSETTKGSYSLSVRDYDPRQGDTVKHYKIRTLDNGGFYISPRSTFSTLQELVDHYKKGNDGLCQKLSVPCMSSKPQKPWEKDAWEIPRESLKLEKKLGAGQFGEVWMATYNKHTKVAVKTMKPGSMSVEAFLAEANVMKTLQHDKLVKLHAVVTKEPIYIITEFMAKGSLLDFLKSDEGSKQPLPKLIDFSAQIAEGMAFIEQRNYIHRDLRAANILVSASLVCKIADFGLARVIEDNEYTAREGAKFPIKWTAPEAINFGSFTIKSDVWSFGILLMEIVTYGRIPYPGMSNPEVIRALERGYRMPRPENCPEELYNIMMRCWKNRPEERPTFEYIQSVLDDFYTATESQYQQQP

Regarding “YARAAARQARAKALNRQLGVA (Mammalian) [MMI-0200]”, the “ARK5(h) % activity” value with ARK5(h) was determined as 93%. In the assay with Arg(h), the “Arg(h) % activity” value turned out to be 82%. In the assay with FGFR3(h), the “FGFR3(h) % activity” value was 208%. Besides, the “Itk(h) % activity” value with Itk(h) is recorded as 98%. Moreover, in the assay with MKK6(h), the “MKK6(h) % activity” value turned out to be 98%. The “MSK2(h) % activity” value with MSK2(h) is 88%. Also, in the assay with MSSK1(h), the “MSSK1(h) % activity” value turned out to be 100%. The “PDGFRα(h) % activity” value in the assay with PDGFRα(h) amounted to 108%.
Take “HRRIKAWLKKIKALARQLGVAA (Mammalian) [MMI-0500]”: in the assay with ARK5(h), the “ARK5(h) % activity” value turned out to be 20%. In the assay with Abl(Q252H)(h), the “Abl(Q252H)(h) % activity” value is reported as 40%. The “Arg(h) % activity” value with Arg(h) came to 22%. Moreover, in the assay with CDK1/cyclinB(h), the “CDK1/cyclinB(h) % activity” value is on record as 57%. The “FGFR3(h) % activity” value with FGFR3(h) came out at 10%. The “HIPK1(h) % activity” value in the assay with HIPK1(h) was found to be 47%. In addition, the “Hck(h) % activity” value with Hck(h) turned out to be 78%. Moreover, in the assay with Itk(h), the “Itk(h) % activity” value came to 7%. The “LIMK1(h) % activity” value with LIMK1(h) is 87%. In the assay with MKK6(h), the “MKK6(h) % activity” value was 18%. In addition, in the assay with MSK2(h), the “MSK2(h) % activity” value was found to be 14%. For the same sequence, in the assay with MSSK1(h), the “MSSK1(h) % activity” value is reported as 22%. Moreover, in the assay with PDGFRα(h), the “PDGFRα(h) % activity” value is listed as 40%. Besides, the “Rsk1(h) % activity” value in the assay with Rsk1(h) amounted to 34%.
Regarding KAFAKLAARLYRKALARQLGVAA [MMI-0400], the “ARK5(h) % activity” value with ARK5(h) was 69%. In addition, in the assay with Abl(Q252H)(h), the “Abl(Q252H)(h) % activity” value was 98%. In addition, the “Arg(h) % activity” value with Arg(h) amounted to 84%. Besides, in the assay with CDK1/cyclinB(h), the “CDK1/cyclinB(h) % activity” value is 74%. Further, in the assay with FGFR3(h), the “FGFR3(h) % activity” value stood at 0%. Besides, the “HIPK1(h) % activity” value with HIPK1(h) is 91%. The “Hck(h) % activity” value with Hck(h) is 72%. In addition, the “Itk(h) % activity” value with Itk(h) amounted to 63%. Further, in the assay with LIMK1(h), the “LIMK1(h) % activity” value amounted to 92%. Moreover, in the assay with MKK6(h), the “MKK6(h) % activity” value amounted to 44%. Moreover, the “MSK2(h) % activity” value with MSK2(h) is 52%. For the same sequence, the “MSSK1(h) % activity” value with MSSK1(h) turned out to be 75%. For the same sequence, the “PDGFRα(h) % activity” value with PDGFRα(h) was found to be 40%. For the same sequence, in the assay with Rsk1(h), the “Rsk1(h) % activity” value amounted to 54%.
Consider FAKLAARLYRKALARQLGVAA [MMI-0300], for which the “ARK5(h) % activity” value with ARK5(h) was determined as 78%. In the assay with Abl(Q252H)(h), the “Abl(Q252H)(h) % activity” value turned out to be 82%. The “Arg(h) % activity” value with Arg(h) was found to be 72%. Besides, the “CDK1/cyclinB(h) % activity” value in the assay with CDK1/cyclinB(h) was determined as 73%. Also, in the assay with HIPK1(h), the “HIPK1(h) % activity” value turned out to be 74%. Besides, the “Hck(h) % activity” value with Hck(h) is listed as 72%. Moreover, the “Itk(h) % activity” value with Itk(h) worked out at 77%. In the assay with LIMK1(h), the “LIMK1(h) % activity” value came to 88%. Further, in the assay with MKK6(h), the “MKK6(h) % activity” value is listed as 48%. Besides, the “MSK2(h) % activity” value in the assay with MSK2(h) was found to be 56%. In the assay with MSSK1(h), the “MSSK1(h) % activity” value is listed as 77%. Besides, the “PDGFRα(h) % activity” value in the assay with PDGFRα(h) was 65%. Further, in the assay with Rsk1(h), the “Rsk1(h) % activity” value is 46%.
